Measured values published in article PMC12421882, “ThIPK1 regulates lignocellulolytic enzyme expression during wood degradation in white-rot fungi” (mBio, 2025).

Substrate: O=P(O)(O)O[C@@H]1[C@@H](OP(=O)(O)O)[C@H](OP(=O)(O)O)[C@H](O)[C@H](OP(=O)(O)O)[C@H]1OP(=O)(O)O
Assay: Kinase-Glo Max luminescent kinase assay; Michaelis-Menten nonlinear regression
Assay type: biochemical, Trametes hirsuta
Conditions: 300 µM ATP, 5 mM MgCl2, 50 mM NaCl, 50 mM Tris pH 7.5, 28°C

B1: ThIPK1 (Trametes hirsuta) (protein)
chain: MENDAPIIGDTSPQDWKYISEGGSTIVFSYVGPPHPSFDGTALRLRKGPTPAHEDPEKYEKPSLAPAEPSQEPEASAAGGADDEEPDDPTVVFQRTVIERLVPTAHLPRLQPVRVARAWLAQLAARTEALRPAERRARDAIDLGRRKAVLATDLVGGEGWAVEIKPKWGFLPQPAYLSPETRAIKTRTCRFCMHAQLKKTEGEDVALGYCPLDLYSGDAGRVERALRELWDVWVGSGGAVNNLRVFVQGKMVKPSADPASLAPLTAQLLPPTSTTSPDSEPPAATRPPDTLRDAFIATLLPLLLDTPVLRTLSTLQRTLDALDIEGLAALWARVHPAHALGTGPGPGAADPDIAAWARFVDEHIDRLAQAAEDAKGAGEGEGQGENGSEVPATEDELRYRVAAYLLGASFKDCSLILRMRPHAQGTVTVIDLDVKSADRLGKWAALDREIVDAYRGVSNARRCVDAHYGAVPLP
notes: full-length cDNA in pET28a(+), E. coli BL21(DE3), Ni-NTA
Km: 31.42 µM
